The target of the test is T1, Transient receptor potential cation channel subfamily V member 6 (TRPV6) protein (human, UniProt Q9H1D0 1-765).
T1 construct: Calcium channel; also called human TRPV6 protein
T1 sequence: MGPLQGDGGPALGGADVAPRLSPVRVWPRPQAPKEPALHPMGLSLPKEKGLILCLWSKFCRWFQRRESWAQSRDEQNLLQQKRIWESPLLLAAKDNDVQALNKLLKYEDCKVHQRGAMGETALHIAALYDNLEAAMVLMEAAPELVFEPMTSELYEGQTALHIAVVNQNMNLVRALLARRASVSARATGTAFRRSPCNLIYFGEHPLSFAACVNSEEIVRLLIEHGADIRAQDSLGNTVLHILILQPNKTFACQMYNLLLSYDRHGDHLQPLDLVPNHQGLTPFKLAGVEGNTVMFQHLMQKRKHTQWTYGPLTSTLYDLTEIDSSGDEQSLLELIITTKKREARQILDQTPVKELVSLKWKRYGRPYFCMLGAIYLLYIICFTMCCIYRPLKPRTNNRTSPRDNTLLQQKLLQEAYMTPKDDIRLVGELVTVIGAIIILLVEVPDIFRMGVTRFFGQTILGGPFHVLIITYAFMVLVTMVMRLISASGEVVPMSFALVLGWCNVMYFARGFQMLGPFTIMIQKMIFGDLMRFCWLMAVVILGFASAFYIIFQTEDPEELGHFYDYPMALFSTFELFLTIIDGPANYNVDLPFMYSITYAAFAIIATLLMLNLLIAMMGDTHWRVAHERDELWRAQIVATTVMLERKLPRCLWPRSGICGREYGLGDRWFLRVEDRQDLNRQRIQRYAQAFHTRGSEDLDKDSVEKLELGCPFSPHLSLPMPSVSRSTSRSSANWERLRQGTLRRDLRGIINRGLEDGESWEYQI
Put plainly: IHC on tissue slices.

The source of these data is patent US20260116965A1 (COHERENT BIOPHARMA SUZHOU, published 2026).

B1: CB-Anti-0002 antibody (antibody, IgG1, V domains shown)
VH: EVKLEESGGGLVQPGGSMKLSCVASGFTFSYYWMNWVRQSPEKGLEWVAEIRLKSHNYATHYAESVKGRFTISRDDSKSSVYLQMNNLRSEDTGIYYCARLAYDGERYYYALDYWGQGTSVTVSS
VL: DIVMSQSPSSLAVSVGEKFTMSCKSSQSLLYSNNQKNYLAWYQQKPGQSPKLLIYWASTRESGVPDRFTGSGYGTDFTLTISSVKAEDLAVYYCQQYYSYPFTFGSGTKLEIK
notes: also called antibody of hybridoma cell line 16CT 4.1.1.2; 16CT4.1.1.2
B1: the binding result is recorded as “binds”.

B2: CB-Anti-0001 antibody (antibody, IgG1, V domains shown)
VH: QVQVQQPGAELVKPGTSVKLSCKASGYTFTSYWMHWVKQRPGQGLEWIGEIDPSDGYTNYNQKFRGKATLSVDKSSTTAYMQLSSLTSEDSAVYYCGWAGDFWGQGTTLTVSS
VL: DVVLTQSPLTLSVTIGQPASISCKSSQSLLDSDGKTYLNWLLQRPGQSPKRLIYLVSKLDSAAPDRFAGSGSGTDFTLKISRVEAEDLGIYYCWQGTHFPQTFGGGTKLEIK
notes: also called antibody of hybridoma cell line 12CT 9.5.1; 12CT9.5.1
For B2, the binding result was “binds”.
